Experimental data taken from patent US20240181074A1 (SHENZHEN ENDURING BIOTECH, published 2024).

B1: JY108 (PEGylated BsAb anti-CD3 x anti-CD19) (bispecific antibody)
scFv 1: DIQLTQSPASLAVSLGQRATISCKASQSVDYDGDSYLNWYQQIPGQPPKLLIYDASNLVSGIPPRFSGSGSGTDFTLNIHPVEKVDAATYHCQQSTEDPWTFGGGTKLEIKGCGGGSGGGGSGGGGSQVQLQQSGAELVRPGSSVKISCKASGYAFSSYWMNWVKQRPGQGLEWIGQIWPGDGDTNYNGKFKGKATLTADESSSTAYMQLSSLASEDSAVYFCARRETTTVGRYYYAMDYWGQGTTVTVSS
scFv 2: not shown
modifications: conjugated through a linker to the branched terminal of mPEG (structure given only as a drawing); residue not given
notes: also called PEGylated T-BsAb JY108
B2: anti-CD19 scFv (SCACD19) (scFv)
scFv: DIQLTQSPASLAVSLGQRATISCKASQSVDYDGDSYLNWYQQIPGQPPKLLIYDASNLVSGIPPRFSGSGSGTDFTLNIHPVEKVDAATYHCQQSTEDPWTFGGGTKLEIKGCGGGSGGGGSGGGGSQVQLQQSGAELVRPGSSVKISCKASGYAFSSYWMNWVKQRPGQGLEWIGQIWPGDGDTNYNGKFKGKATLTADESSSTAYMQLSSLASEDSAVYFCARRETTTVGRYYYAMDYWGQGTTVTVSSHHHHHH
B3: anti-CD19 scFv-Linker (anti-CD19-Linker) (scFv)
scFv: DIQLTQSPASLAVSLGQRATISCKASQSVDYDGDSYLNWYQQIPGQPPKLLIYDASNLVSGIPPRFSGSGSGTDFTLNIHPVEKVDAATYHCQQSTEDPWTFGGGTKLEIKGCGGGSGGGGSGGGGSQVQLQQSGAELVRPGSSVKISCKASGYAFSSYWMNWVKQRPGQGLEWIGQIWPGDGDTNYNGKFKGKATLTADESSSTAYMQLSSLASEDSAVYFCARRETTTVGRYYYAMDYWGQGTTVTVSSHHHHHH
modifications: conjugated to a linker (linker is a much smaller PEG11); the residue is not given
notes: Linker conjugate of SCACD19; also called SCACD19-linker

Columns and labels:
[1] = molecular target: T1, human CD19 on cells (human, UniProt P15391 20-556); test: cell-based or functional assay
T1 sequence (looked up): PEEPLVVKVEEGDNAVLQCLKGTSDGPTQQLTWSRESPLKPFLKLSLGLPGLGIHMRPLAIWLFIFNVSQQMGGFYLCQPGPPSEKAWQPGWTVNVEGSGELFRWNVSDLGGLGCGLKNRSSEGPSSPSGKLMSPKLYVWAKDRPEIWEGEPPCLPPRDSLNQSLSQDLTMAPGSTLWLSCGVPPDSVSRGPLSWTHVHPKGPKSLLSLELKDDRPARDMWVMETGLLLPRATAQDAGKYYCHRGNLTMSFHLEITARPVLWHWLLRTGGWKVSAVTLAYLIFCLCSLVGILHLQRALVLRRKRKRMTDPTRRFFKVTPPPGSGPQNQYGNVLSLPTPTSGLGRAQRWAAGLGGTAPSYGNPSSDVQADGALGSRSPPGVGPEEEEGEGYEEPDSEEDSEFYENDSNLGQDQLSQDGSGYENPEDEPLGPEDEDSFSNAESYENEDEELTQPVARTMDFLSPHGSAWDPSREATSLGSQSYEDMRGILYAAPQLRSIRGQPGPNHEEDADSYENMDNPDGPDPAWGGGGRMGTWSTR

[2] = molecular target: T2, human CD19-Fc protein (AcroBiosystems, Cat. CD19-H5259 / Code CD9-H5259) (human, UniProt P15391 20-291); test: BiaCore SPR, ligand captured by Fc capture
T2 construct: not shown: Fc of the bought CD19-Fc
T2 sequence (looked up): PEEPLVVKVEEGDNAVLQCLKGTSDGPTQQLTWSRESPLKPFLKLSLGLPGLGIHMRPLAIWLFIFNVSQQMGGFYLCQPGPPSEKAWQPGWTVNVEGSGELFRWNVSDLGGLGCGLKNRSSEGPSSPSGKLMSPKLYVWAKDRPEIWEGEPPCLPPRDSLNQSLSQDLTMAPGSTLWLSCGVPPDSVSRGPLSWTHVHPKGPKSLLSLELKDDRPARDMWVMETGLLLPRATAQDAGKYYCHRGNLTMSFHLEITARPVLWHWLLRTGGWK
Text: General procedure: Diluted human CD19 (AcroBiosystems, Cat. CD19-H5259) or human CD3E&3D (AcroBiosystems, Cat. CDD-H52W0) were captured on the sensor chip through Fc capture method. The capture time for human CD3E & CD3D and for human CD19 was set for 12 s and 12-30 s respectively and capture flow rate was […]. Each sample tested was serially diluted into 6-8 concentrations. The association time and dissociation time for the analytes were set for 180 s and 420 s respectively, and the flow rate for the analyte was set at […]. For surface regeneration, 10 mM Glycine-HCl buffer was used; the contact time was set for 30 s and the flow rate was […]. Flow cell 1 and blank injection of buffer in each cycle were used as double references for Response Units subtraction. All data were processed using BiaCore T2000 Evaluation software (version 3.1).

Binder | EC50 of cell killing (MTS cytotoxicity), Nalm-6, E:T=5:1 [1] | EC50 of cell killing (MTS cytotoxicity), Nalm-6, E:T=10:1 [1] | EC50 of cell killing (MTS cytotoxicity), REH [1] | EC50 of cell killing (MTS cytotoxicity), Raji [1] | Kd [2] | koff [2] | kon [2]
B1 | 0.0376 µg/mL | 0.0147 µg/mL | 0.0104 µg/mL | 0.159 µg/mL | 1440 pM | 0.000566 s⁻¹ | 392000 M⁻¹ s⁻¹
B2 |  |  |  |  | 65.3 pM | 0.000343 s⁻¹ | 5.26e+06 M⁻¹ s⁻¹
B3 |  |  |  |  | 111 pM | 0.000309 s⁻¹ | 2.79e+06 M⁻¹ s⁻¹
